B1: HDV Ribozyme (parent)
chain: GGCCGGCAUGGUCCCAGCCUCCUCGCUGGCGCCGGCUGGGCAACAUUCCGAGGGGACCGUCCCCUCGGUAAUGGCGAAUGGGACCCA

Variants of: B1
Assay: self-cleavage, relative activity (ratio to wild type); higher = more cleavage; co-transcriptional

| Variant | self-cleavage |
| --- | --- |
| GGCCGGCAUGGUCCCAGCCGCCUCGCUGGCGCCGGCUGGGCAACAUUCGGAGGGGACCGUCCCCUCGGUAAUGGCGAAUGGGACCCA [U20G C49G] | 0.361 |
| GGCCGGCAUGGUCCCUACCUCCUCGCUGGCGCCGGCUGGGCAACAUUCCGAGGGGACCGUCCCCUCGGUAAUGGCGAAUGGGACCCA [A16U G17A] | 0.712 |
| GGCCGGCAUGGUCCCAGCCUCCUCGCUGGCGCCGGCUAGGCAACAUUCCGAGGGGACCGUCCCCUCGGUAAUGCCGAAUGGGACCCA [G38A G74C] | 0.161 |
| GGCCAGCAUGGUCCCAGCCUCCUCGCUGGCGCCGGCUGGGCAACAUUCCUAGGGGACCGUCCCCUCGGUAAUGGCGAAUGGGACCCA [G5A G50U] | 0.143 |
| GGCCGGCAUGGUCCCAGCCUCCUCGCUGGCGCCGGCUGGGCAACAUUCCGAGGGGACCCUCCCCUUGGUAAUGGCGAAUGGGACCCA [G59C C66U] | 0.81 |
| GGCCGGCAUGGUCACAGCCUCCUCGCUGGCGCCGGCUGGGCAACAUUCCGAGGGGACCGUCCCCUCGGUAAUGCCGAAUGGGACCCA [C14A G74C] | 0.185 |
| GGCCGGCAUGAUCCCAGCCUCCUCGCUGGCGCCGGCUGGGCAACAUUCCGAGGGGACCGUCCACUCGGUAAUGGCGAAUGGGACCCA [G11A C63A] | 0.345 |
| GGCCGGCAUGGUCCCAGCCUCCUCGCUGGCGCCGGCUGGGCAACAUUCCGAGGGGACCAUCCCGUCGGUAAUGGCGAAUGGGACCCA [G59A C64G] | 0.831 |
| GGCCGGCAUGGUCCCAGCCUCCUCGCUGGCGCCGGUUGGGCAGCAUUCCGAGGGGACCGUCCCCUCGGUAAUGGCGAAUGGGACCCA [C36U A43G] | 0.196 |
| GGCCGGCAUGGUCCCAGCCUCCUCGCUGGCGCCGGCUGGGCAACAAACCGAGGGGACCGUCCCCUCGGUAAUGGCGAAUGGGACCCA [U46A U47A] | 0.867 |
| GGCCGGCAUGGUCCCAGCCUCCUCGCUGGCGCCGGCUUGGCAACAUUCCGAGGGGCCCGUCCCCUCGGUAAUGGCGAAUGGGACCCA [G38U A56C] | 0.266 |
| GGCCGGCAUGGUCCUAGCCUCCUCGCUGGCGCCGGCUGGGCAACAUUCCGAGGGGACCGUCCCCUCGGUAAUGGCGAAUGGAACCCA [C15U G82A] | 0.325 |
| GGCCGGCAUGGUCCCAGCCUCCCCGCUGGCGUCGGCUGGGCAACAUUCCGAGGGGACCGUCCCCUCGGUAAUGGCGAAUGGGACCCA [U23C C32U] | 0.587 |
| GGGCGGCAUGGUCCCAGCCUUCUCGCUGGCGCCGGCUGGGCAACAUUCCGAGGGGACCGUCCCCUCGGUAAUGGCGAAUGGGACCCA [C3G C21U] | 0.0326 |
| GGCCAGCAUGGUCCCAGCCUCCUCGCUGGCGCCGGCUGGGCAACAUUCCGAGGGGACCAUCCCCUCGGUAAUGGCGAAUGGGACCCA [G5A G59A] | 0.407 |
| GGCCGGCAUGGUCCCAGCCUCCUCGCUGGCGCCGGCUGGGCAACAUUCCGAGGGGACCGUCCCCUCGUUAAUGGCGAAUGGGACCCC [G68U A87C] | 1.01 |
| GGCCGGCAUGGUCUCAGCCUCCUCGCUGGCGCCGGCUGGGCAACAUUCCGAGGGGACCGUCCCCUCGGUAAUGGCGAAUGGAACCCA [C14U G82A] | 0.323 |
| GGCCGGCAUGGUCCCAGCCUCCUCGCUGGCGCCGGCUGGGCAACAUUCCGAAGGGACCGUCCCCUCGAUAAUGGCGAAUGGGACCCA [G52A G68A] | 0.788 |
| GGCCGGCAUGGUCCCAGCCUCCUCGCUGGCGCCGGCUGGGCAACAUUCCGAGGGGACCGUCCCCUUGGUCAUGGCGAAUGGGACCCA [C66U A70C] | 0.712 |
| GGCCGGCAUGGUCCCAGCCUCCUCGCUGGCGCCGGCUGGGCAACAUUCCGAGGGGACCGUCCUCUCGGUAAUGGCGAAUGGGAGCCA [C63U C84G] | 0.63 |
| GGCCGGUAUGGUCCCAGCCUCCUCGCUGGCGCCGGCUGGGCAACAUUCCGCGGGGACCGUCCCCUCGGUAAUGGCGAAUGGGACCCA [C7U A51C] | 0.643 |
| GGCCGGCAUGGUCCCAGCCUCCUCGCUGCCGCCGGCUUGGCAACAUUCCGAGGGGACCGUCCCCUCGGUAAUGGCGAAUGGGACCCA [G29C G38U] | 0.0627 |

| Variant | self-cleavage |
| --- | --- |
| GGCAGGCAUGGUCCCAGCCUCCUCGCUGGGGCCGGCUGGGCAACAUUCCGAGGGGACCGUCCCCUCGGUAAUGGCGAAUGGGACCCA [C4A C30G] | 0 |
| GGCCGGCAGGGUCCCAGCCUCCUCGCUGGCGCCGGCUGGGCAACAUUCCGAGGGGACCGUCCCCUCGGUAAUGGGGAAUGGGACCCA [U9G C75G] | 0.0791 |
| GGCCGGAAUGGUCCCAGCCUCCUCGCUGGCGCCGGCUGGGCAACAUUCCGAGGGGACCGUCCCCUCAGUAAUGGCGAAUGGGACCCA [C7A G67A] | 0.315 |
| GGCCGGCAUGGUCCCAGCCUCCUCGCUGGCACCGGCUGGGCAACAUUCCGAGGGGACCGUGCCCUCGGUAAUGGCGAAUGGGACCCA [G31A C61G] | 0.401 |
| GUCCGGCAUGGUCCCAGCCUCCUCGCUGGCGCCAGCUGGGCAACAUUCCGAGGGGACCGUCCCCUCGGUAAUGGCGAAUGGGACCCA [G2U G34A] | 0.0671 |
| GGCCGGCAUGGUCCCAGCCUCCUCGCUGGCGCCGGCUGGGCAACAUUCCGAGGGCACCGUCCCCGCGGUAAUGGCGAAUGGGACCCA [G55C U65G] | 1.06 |
| GGCCGGCAUGGUCCCAGCCUCCUCGCUGGCGCCGGCUGGGCAACAUUCCGAGGGGAUCUUCCCCUCGGUAAUGGCGAAUGGGACCCA [C57U G59U] | 1.2 |
| GGCCGGCAUGGUCCCAGCCUCCUCGCUGACGCCGGCUGGGCAACAUUCCGAGGGGAGCGUCCCCUCGGUAAUGGCGAAUGGGACCCA [G29A C57G] | 0.267 |
| GGCCGGCAUGGUCCCAGCCUCCUCGCCGGCGCCGGCUGGGCAACAUUCCGAGGGGACCGUCCCCUCGUUAAUGGCGAAUGGGACCCA [U27C G68U] | 0.642 |
| GGCCGGCAUGGUCCCAGCCUCCUCGCUGGCGCCGGCUGCGCAACAUUCCGAGAGGACCGUCCCCUCGGUAAUGGCGAAUGGGACCCA [G39C G53A] | 0.308 |
| GGCCGGCAUGGUCCCAGCCUCCUCGCUGGCGCCGGCUGGGCAACAUUCCGGGGGGACCGUCCCCUCGAUAAUGGCGAAUGGGACCCA [A51G G68A] | 0.901 |
| GGCCGGCAUGGUCCCAGCCUCCUCGCUGGCGCCGACUGGGCAACAUUCCGAGGGGACCGUUCCCUCGGUAAUGGCGAAUGGGACCCA [G35A C61U] | 0.511 |
| GGCCGGCAUGGUCCCAGCCUCCUCGCUGGCGCCGGCUGGGCAACAUUCCGCGGGGACCGUCCCCUCGGUAACGGCGAAUGGGACCCA [A51C U72C] | 0.475 |
| GGCCGGCAUGGUCCCAGCCUCCUCGCUGGCGCCGGCUGGGCAACAUUCCGAGGGGACCGUCCCGUCGGUAAUGGCAAAUGGGACCCA [C64G G76A] | 0.862 |
| GGCCGGCAUGGUCCCAGCCUCCUCGCUGGCGCCGGCUGGGCAAAAUUCCGAGGGGACUGUCCCCUCGGUAAUGGCGAAUGGGACCCA [C44A C58U] | 0.689 |
| GGCCGGCAUGGUCCCAGCUUCCUCGCUGGCGCAGGCUGGGCAACAUUCCGAGGGGACCGUCCCCUCGGUAAUGGCGAAUGGGACCCA [C19U C33A] | 0.0665 |
| GGCCGGCAUGGUCCCAGCCUCCUCGCUGGCGCCGGCUGGGCAACAUUCCGAGUGGACCGUCACCUCGGUAAUGGCGAAUGGGACCCA [G53U C62A] | 0.901 |
| GGCCGGCAUGGUCCCAGCCUCCUCCCUGGCGCCGGCUGGGCAACAUUCCGAGAGGACCGUCCCCUCGGUAAUGGCGAAUGGGACCCA [G25C G53A] | 0 |
| GGCCGACAUGGUCCCAGCCUACUCGCUGGCGCCGGCUGGGCAACAUUCCGAGGGGACCGUCCCCUCGGUAAUGGCGAAUGGGACCCA [G6A C21A] | 0.0707 |
| GGCCGGCAUGGUCCCAGCGUCCUCGCUGGCGCCGGCUGGGCAACAUUCUGAGGGGACCGUCCCCUCGGUAAUGGCGAAUGGGACCCA [C19G C49U] | 0.0326 |
| GGACGGCAUGGUCCCAGCCUCAUCGCUGGCGCCGGCUGGGCAACAUUCCGAGGGGACCGUCCCCUCGGUAAUGGCGAAUGGGACCCA [C3A C22A] | 0.0716 |
| GGCCGGCAUGGUCCCAGCCUCCUCCCUGGCGCCGGCUGGGCAACAUUCCGAGGGGACCGUCCCCUCGGUAAUGGCGAAUGUGACCCA [G25C G81U] | 0.151 |

| Variant | self-cleavage |
| --- | --- |
| GGCCGGCAUGGUCCCAGCCUCCUCGCUGGCGCCGGCUGGGCAACAUUACGAGGAGACCGUCCCCUCGGUAAUGGCGAAUGGGACCCA [C48A G54A] | 1.06 |
| GGCCGGCAUGGUCCCAGCCUCCUCGCUGGAGCCGGCUGGGCAACAUUCCGAGGGGACCGUCCCCUCGCUAAUGGCGAAUGGGACCCA [C30A G68C] | 0.308 |
| GGCCGGCAUGGUGCCAGCCUCCUCGCUGGCGCCGGCUGGGCAACAUUCCGAGGGGACCGUCCUCUCGGUAAUGGCGAAUGGGACCCA [C13G C63U] | 0 |
| GGCCGGCAUGGUCCCAGCCUCCUCGCUGGCGCUGGCUGGGCAACAUUCCGAGGGGACCGUCCCCUCGGUAAUGCCGAAUGGGACCCA [C33U G74C] | 0.0339 |
| GGCCGGCAUGGUCCCAGCCUCCUCGCUGGCGCCGGCUGGGCGACAUUCCGAGUGGACCGUCCCCUCGGUAAUGGCGAAUGGGACCCA [A42G G53U] | 0.817 |
| GGCCGGCAUGGUCCCAGCCUCCUCGCUGGCGCCGGCUGGGCAACAUUCCGAGGGGACCGUCCUCUCGGUAAUGGCGUAUGGGACCCA [C63U A77U] | 0.698 |
| GGCCGGCAUGGUCCCAGCCUCCUCGGUGGCGCCGGCUGGGCAACAUUCCGAGGGGACCGUCCCCUCGGCAAUGGCGAAUGGGACCCA [C26G U69C] | 1.26 |
| GGCCGGCAUGGUCCCAGCCUCCUCGCUGGCGCCGGCUGGGCAACAUUCCGAGGGGACCCUCGCCUCGGUAAUGGCGAAUGGGACCCA [G59C C62G] | 0.6 |
| GGCCGGCAUGGUCCCAGUCUCCUCGCUGGCGCCGGCUGGGCAACAUUCCGAGGGGACCGUCCCCUCGGUAAUGGCGAAUGUGACCCA [C18U G81U] | 0.281 |
| GGCCGGCAUGGUCCCAGACUCCUCGCUGGCGCCGGCUGGGCAACAUUCCGAGGGGACCGUCCCCACGGUAAUGGCGAAUGGGACCCA [C18A U65A] | 0.0723 |
| GGCCGGCAUGGUCCCAGCCUCCUCGCUGGCGCCGGCUGGGCAACAUUCCGAGGGGACCGUCCCCUCGGUAAUGGCGAAAGGUACCCA [U79A G82U] | 0.374 |
| GGCCGGCAUGGUCCCAGCCUCCUCGCUUGCGCCGGCUGGGCAACAUUCCGAGGGGACCGUCGCCUCGGUAAUGGCGAAUGGGACCCA [G28U C62G] | 0.0415 |
| GGCCGGCAUGGUCCCAGCCUCCUCGCUGGCGCCGGCUGGGCAACAUUCCGAGGGGCCCGUCCCCUUGGUAAUGGCGAAUGGGACCCA [A56C C66U] | 0.861 |
| GGCCGGCAUGGUCCCAGCCUCCUCGCUGGCGCCGGCUGGGCAACAUUCCGCGGGGACCGUCCCUUCGGUAAUGGCGAAUGGGACCCA [A51C C64U] | 0.9 |
| GGCCGGCAUGGUACCAGCCUGCUCGCUGGCGCCGGCUGGGCAACAUUCCGAGGGGACCGUCCCCUCGGUAAUGGCGAAUGGGACCCA [C13A C21G] | 0.0332 |
| GGCCGGCAUGGUCCCAGCCUCCUCGCUGGCGCCGGCUGGGCAACAUUCCGAGGGGACCUUCCCCUCGGUAAUGGCGAAUGGGACCCC [G59U A87C] | 1.17 |
| GGACGGCAUGGUCCCAGCCUCCUCGCUGGCGCCGGCUGGGCAACAUUGCGAGGGGACCGUCCCCUCGGUAAUGGCGAAUGGGACCCA [C3A C48G] | 0.795 |
| GGCCUGCAUGGUCCCAGCCUCCUCGCUAGCGCCGGCUGGGCAACAUUCCGAGGGGACCGUCCCCUCGGUAAUGGCGAAUGGGACCCA [G5U G28A] | 0 |
| GGCCGGCAUGGUCCCAGCCUCCUCGCUGGCGCCGGCUGGGCAACAUUCCGAGGGGACCGUCCCCGCGGUAAUGGCGAUUGGGACCCA [U65G A78U] | 0.569 |
| GGCCGGCAUGGUCCCAGCCUCCUCGCUGGGGCCGGCUGGGCAACAUUCCGAGGGGACCGUCCCCUCGGUUAUGGCGAAUGGGACCCA [C30G A70U] | 0.0468 |

— the RNAGym collection of RNA variant scans (doi:10.7554/elife.80360)
